Results from publication PMC4640650 (Science Advances, 2015).

Target: the molecule itself
Assay: crystal structure

B1: ATP synthase c-subunit of Mycobacterium phlei (Fo rotor ring, c9 ring) (natural protein, UniProt A0A5N5V239 1-86, looked up)
chain: MELDPNALITAGALIGGGLIMGGGAIGAGIGDGIAGNALISGIARQPEAQGRLFTPFFITVGLVEAAYFINLAFMALFVFATPGLQ
stoichiometry N: 9
